Consider eight molecules from patent US20180289790A1 (Bristol-Myers Squibb, published 2018).

In one assay the target is hCD64 (human) (UniProt P12314). As to the kind of experiment: method not stated (Table 9, 'µM Kd').
The next assay deals with hCD32b (human) (UniProt P31994). As to the kind of experiment: method not stated (Table 9, 'µM Kd').
A further assay addresses hCD32a-H131 (human) (UniProt P12318). The experiment in a line: method not stated (Table 9, 'µM Kd').
A further assay addresses hCD32a-R131 (human) (UniProt P12318). The experiment in a line: method not stated (Table 9, 'µM Kd').
Assay [1] deals with human ICOS (huICOS), on activated human CD4+ T cells (human) (UniProt Q9Y6W8). As to the kind of experiment: cell-based or functional assay.
A further assay deals with hCD16a-F158 (human) (UniProt P08637). As to the kind of experiment: method not stated (Table 9, 'µM Kd').
In a further assay the target is hCD16a-V158 (human) (UniProt P08637). The experiment in a line: method not stated (Table 9, 'µM Kd').
Assay [2] concerns the target T1, human ICOS Fc (R&D Systems, 169-CS-050) (human, UniProt Q9Y6W8 21-140).
T1 construct: Bought construct; also called human ICOS with an Fc tag; not shown: Fc tag
T1 sequence: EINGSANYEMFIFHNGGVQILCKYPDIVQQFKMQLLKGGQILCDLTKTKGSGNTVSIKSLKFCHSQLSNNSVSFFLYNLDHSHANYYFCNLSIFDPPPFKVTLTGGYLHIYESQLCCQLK
As to the kind of experiment: SPR (Biacore T200), 37 °C, human ICOS Fc captured by anti-hFc on a CM4 chip, Fab as analyte, 1:1 Langmuir model. For orientation: Surface plasmon resonance follows binding to a sensor surface in real time, without labels.

The target of assay [3] is T2, huICOS/Fc (human, UniProt Q9Y6W8 21-140).
T2 construct: also called huICOS polypeptide construct; human ICOS antigen; not shown: Fc part
T2 sequence: T1 sequence
As to the kind of experiment: SPR binning: reference antibody on chip, test antibody pre-incubated with huICOS/Fc.

Assay [4] deals with T2, huICOS/Fc. The experiment in a line: HDX-MS, ICOS-Fc mixed with mAb at 1:1 ratio.
Protocol: ICOS-Fc was mixed with mAbs at 1:1 ratio and HDX-MS was run for one minute, 10 minutes, 4 hours in duplicate.

Where a chain is given by its changes, count along the chain named. In names and notes the source's numbering stands.

hCD32a-H131 (human), sequence (P12318 36-218 limits assumed): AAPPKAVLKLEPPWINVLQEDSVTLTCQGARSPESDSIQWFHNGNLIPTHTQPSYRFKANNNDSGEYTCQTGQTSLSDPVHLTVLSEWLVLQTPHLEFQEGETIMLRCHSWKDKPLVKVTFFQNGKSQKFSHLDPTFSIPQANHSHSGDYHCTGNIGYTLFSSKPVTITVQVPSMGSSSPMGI
hCD32b (human), sequence (P31994 43-217 limits assumed): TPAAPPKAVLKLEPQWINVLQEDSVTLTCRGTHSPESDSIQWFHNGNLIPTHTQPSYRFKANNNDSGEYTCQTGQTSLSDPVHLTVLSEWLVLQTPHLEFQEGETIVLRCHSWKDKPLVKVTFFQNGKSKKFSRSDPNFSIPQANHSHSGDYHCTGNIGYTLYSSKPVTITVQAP
hCD32a-R131 (human), sequence (P12318 36-218 H167R limits assumed): as the sequence (P12318 36-218 limits assumed) above, with H132R counted along it
hCD64 (human), sequence (P12314 16-288 limits assumed): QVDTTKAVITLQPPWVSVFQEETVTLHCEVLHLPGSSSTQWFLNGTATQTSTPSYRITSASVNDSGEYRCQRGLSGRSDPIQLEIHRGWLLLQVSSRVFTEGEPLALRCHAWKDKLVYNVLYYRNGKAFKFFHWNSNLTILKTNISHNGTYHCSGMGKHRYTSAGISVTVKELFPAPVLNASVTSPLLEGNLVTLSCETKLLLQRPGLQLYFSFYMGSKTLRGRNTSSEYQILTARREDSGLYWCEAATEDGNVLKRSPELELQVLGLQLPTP
hCD16a-V158 (human), sequence (P08637 17-208 F176V limits assumed): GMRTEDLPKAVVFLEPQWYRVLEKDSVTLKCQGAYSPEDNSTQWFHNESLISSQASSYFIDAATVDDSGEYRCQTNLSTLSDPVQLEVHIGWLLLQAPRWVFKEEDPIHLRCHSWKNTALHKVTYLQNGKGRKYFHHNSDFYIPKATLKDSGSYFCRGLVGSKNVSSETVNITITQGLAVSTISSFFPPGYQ
hCD16a-F158 (human), sequence (P08637 17-208 limits assumed): as the sequence (P08637 17-208 F176V limits assumed) above, with V160F counted along it

Regarding “human IgG1f-S267E, as in Table 9 (antibody)”, the dissociation constant Kd (usually the free concentration of one partner at which half of the binding sites on the other are occupied at equilibrium, for simple one-to-one binding) is 0.2 µM with hCD64 (human), 87 µM in the assay with hCD32b (human), 650 µM with hCD32a-H131 (human) and 31 µM with hCD32a-R131 (human).
Molecule “ICOS.4 (chimeric antibody with the variable regions of hamster antibody C398.4A and human IgG1f constant regions)” yielded an EC50 of interferon-gamma secretion, CHO-OKT3-CD32 / CD4+CD25- T cell co-culture in assay [1] of 0.018 µg/mL.
Regarding “human IgG1f (wild type), as in Table 9 (antibody)”, the Kd was 0.2 µM with hCD64 (human); 3400 µM with hCD32b (human); 200 µM with hCD16a-F158 (human); 530 µM in the assay with hCD32a-H131 (human); 960 µM in the assay with hCD32a-R131 (human); 97 µM with hCD16a-V158 (human).

B1: ICOS.33 IgG1f S267E Fab fragment (Lot PC-1804-04) (Fab, V domains shown)
VH: EVQLVESGGGLVKPGGSLRLSCAASGFTFSDYFMHWVRQAPGKGLEWVGVIDTKSFNYATYYSDLVKGRFTISRDDSKNTLYLQMNSLKTEDTAVYYCTATIAVPYYFDYWGQGTLVTVSS
VL: DIQMTQSPSSLSASVGDRVTITCQASQDISNYLSWYQQKPGKAPKLLIYYTNLLAEGVPSRFSGSGSGTDFTFTISSLQPEDIATYYCQQYYNYRTFGPGTKVDIKR
notes: Fab of m1; also called Fab fragment of ICOS.33 IgG1f S267E
With B1, the Kd in assay [2] was in the range of 0.052 to 0.065 µM.

B2: 17C4 (antibody, V domains shown)
VH: QVTLRESGPALVKPTQTLTLTCTFSGFSLSTSGMCVSWIRQPPGKALEWLALIDWDDDKFYSTSLKTRLTISKDTSKNQVVLTMTNMDPVDTATYYCARMSTPTYYGLDVWGQGTTVTVSS
VL: DIQMTQSPSSLSASVGDRVTITCRASQGISSWLAWYQQKPEKAPKSLIYAASSLQSGVPSRFSGSGSGTDFTLTISSLQPEDFATYYCQQYNSYPLTFGGGTKVEIK
notes: Fully human hybridoma antibody
Turning to B2, the binding result in the assay with huICOS/Fc [3] is recorded as “binds”.

B3: 9D5 (antibody, V domains shown)
VH: QITLKESGPTLVKPTQTLTLTCTFSGFSLGTSGLGVGWIRQPPGKALEWLAFIYWDDDKRYSPSLKSRLTITKDTSKNQVVLTMTNMDPVDTATYYCAHRRGFFDYWGQGTLVTVSS
VL: B2 VL
notes: as for B2
Regarding B3, the binding result with huICOS/Fc [4] is given as “binds”.

B4: 3E8 (antibody, V domains shown)
VH: QVQLVESGGGVVQPGMSLRLSCAASGFTFSTYGMQWVRQAPGKGLEWVTVIWHDGSHKDYADSVKGRFTISRDNSKNTMYLQMNSLRAEDTAVYYCARDRQTGEGYFDFWGQGTLVTVSS
VL: B2 VL with L96Y, G100Q, V104L
notes: as for B2
As for B4, the binding result with huICOS/Fc [3] is recorded as “binds”.

B5: IgG-2644 (antibody, V domains shown)
VH: EVQLLESGGGLVQPGGSLRLSCEASGFIFKYYAMSWVRQAPGKGLEWVSGISGSGGSTYYADSVKGRFTISRDNSKHTLYLQMNSLRAEDTAVYYCAKDGDFDWIHYYYGMDVWGQGTTVTVSS
VL: AIQLTQSPSSLSASVGDRVTITCRASQGISSALAWYQQKPGKAPKLLIYDASSLESGVPSRFSGSGSGTDFTLTISSLQPEDFATYYCQQFNSYPHTFGGGTKVEIKR
notes: Human antibody from mRNA display, cloned into IgG expression vectors
With B5, in the assay with huICOS/Fc [3], the binding result is given as “binds”.
